Source: patent US10487337B2, “Methods for monocot plant improvement” (Agresearch Limited, priority 2014, dated 2019)

Tests used:
[1] = biological target: T1, NINJA (Arabidopsis thaliana, UniProt Q9SV55); assay: BiFC interaction with NINJA in Nicotiana benthamiana leaves; type: cell-based; conditions: in plants (FIG. 8)
T1 construct: expressed in transfected cells; host or cells: Nicotiana benthamiana leaves (Agrobacterium infiltration)
Description: The binary BiFC-Gateway YFP vectors pDEST-VYNE(R)^GW (Venus aa 1-173) and pDEST-VYCE(R)^GW (Venus aa 156-239) with N-terminal fusions, were used to construct the following vectors; pDESTnYFP-BZR1, pDESTnYFP-NINJA, pDESTnYFP-PPD1, pDESTcYFP-BZR1, pDESTcYFP-PPD1, pDESTcYFP-PPD1Δppd, pDESTcYFP-PPD1Δtify and pDESTcYFP-PPD1Δjas*. For transient in planta expression of proteins interacting with PPD1 or BZR, NINJA and TPL were Gateway® sub-cloned into pRSh1, to construct pRSh1-NINJA and pRSh1-TPL. […] When expressed these constructs produced proteins listed in sequences 60, 62, 70 71 72 73 74 75 76 77 78 79: including TOPLESS (TPL), NINJA, Bimolecular Fluorescence (BiFC) nYFP, BiFC cYFP, BiFC nYFP-NINJA, BiFC nYFP-BZR1, BiFC cYFP-PPD1, BiFC cYFP-NINJA, BiFC cYFP-BZR1, BiFC cYFP-PPD1-ppd, BiFC cYFP-PPD1-tify, BiFC cYFP-PPD1-jas*.
Transient BiFC experiments were performed using combinations of pDESTnYFP and pDESTcYFP plasmids, with or without plasmids for the expression of NINJA (pRSh1-NINJA) or TPL (pRSh1-TPL) and Agrobacterium-infiltration of Nicotiana benthamiana leaves. […] Two hours prior to sampling for microscopic fluorescence observations leaves were infiltrated with a 1 μg/ml DAPI solution to stain nuclei. YFP fluorescence and DAPI staining was detected using an Olympus Fluoview FV10i confocal laser scanning microscope. […]

[2] = test system: ryegrass plants; assay: Root biomass analysis of grass transformants; type: in vivo; conditions: root growth beyond the grow bag, approximately 6 weeks
Protocol: (§1) An equal number (typically 4-10) of tillers were taken from WT and ryegrass plants transformed with Arabidopsis PPD under one of three root promoters. Tillers were planted into plastic grow bags containing potting mix and pruned to be of equal height. […] The increase in root biomass was quantified removing the attached above ground portion (leaves and shoots) and drying the roots at 65° C. for 48 hr then weighing the dry weights (Tables 3 and 4)
as §1, with “a constitutive promoter.” for “one of three root promoters.”, “(Table 5).” for “(Tables 3 and 4)”

[3] = test system: ryegrass plants; assay: Leaf biomass analysis of grass transformants; type: in vivo; conditions: observed leaf growth, approximately 6 weeks
Protocol: as §1, with “two green tissue” for “three root”, “leaf/shoot” for “root”, “can be” for “was”, “them” for “the roots”, “weights.” for “weights (Tables 3 and 4)”
as §1, with “a constitutive promoter.” for “one of three root promoters.”, “leaf/shoot” for “root”, “them” for “the roots”, “(Table 2).” for “(Tables 3 and 4)”

T1 sequence (Q9SV55 with tags, fused parts or gaps): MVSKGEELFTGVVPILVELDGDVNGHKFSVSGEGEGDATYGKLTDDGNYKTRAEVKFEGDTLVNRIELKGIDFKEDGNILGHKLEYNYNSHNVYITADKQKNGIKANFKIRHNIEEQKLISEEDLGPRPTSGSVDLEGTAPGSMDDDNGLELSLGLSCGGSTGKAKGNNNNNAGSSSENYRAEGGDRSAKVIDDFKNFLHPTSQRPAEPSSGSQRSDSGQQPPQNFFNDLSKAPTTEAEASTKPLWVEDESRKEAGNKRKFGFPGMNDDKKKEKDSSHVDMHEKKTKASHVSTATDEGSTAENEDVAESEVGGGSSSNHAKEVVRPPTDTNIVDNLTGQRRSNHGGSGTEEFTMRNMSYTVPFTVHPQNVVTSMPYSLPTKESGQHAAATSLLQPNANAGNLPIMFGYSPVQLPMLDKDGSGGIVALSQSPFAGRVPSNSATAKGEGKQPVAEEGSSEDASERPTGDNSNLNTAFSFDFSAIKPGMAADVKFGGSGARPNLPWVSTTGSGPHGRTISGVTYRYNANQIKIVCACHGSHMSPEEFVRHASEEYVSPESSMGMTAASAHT

B1: PPD1: PEAPOD 1 protein of Arabidopsis thaliana, SEQ ID NO: 1 (protein, listed as Arabidopsis thaliana)
chain: MDVGVSPAKSILAKPLKLLTEEDISQLTREDCRKFLKDKGMRRPSWNKSQAIQQVLSLKALYEPGDDSGAGIFRKILVSQPVNPPRVTTTLIEPSNELEACGRVSYPEDNGACHRMDSPRSAEFSGGSGHFVSEKDGHKTTISPRSPAETSELVGQMTIFYSGKVNVYDGIPPEKARSIMHFAANPIDLPENGIFASSRMISKLISKEKMMELPQKGLEKANSSRDSGMEGQANRKVSLQRYREKRKDRKFSKAKKCPGVASSSLEMFLNCQPRMKAAYSQNLGCTGSPLHSQSPESQTKSPNLSVDLNSEGI
B1 was tested, and the “interaction with NINJA” value [1] was “interacted with NINJA in plants”, the “root biomass/growth/length/branching compared to WT plants” value ([2]; constitutive promoter) was “increase in root biomass/growth/length/branching” and the “root biomass/growth/length/branching compared to WT plants” value ([2]; root promoter) was “increase in root biomass/growth/length/branching”. For the same molecule, the “leaf biomass/growth/length/branching compared to WT plants” value ([3]; constitutive promoter) was “increase in leaf biomass/growth/length/branching” and the “leaf biomass/growth/length/branching compared to WT plants” value ([3]; green tissue promoter) was “increase in leaf biomass/growth/length/branching”.
